Results reported in PMC10939263.
Numbering of substitutions follows the chain as printed. Names and notes keep the numbering of the source.

B1: SKAP1 D120K mutant, N2-fused (natural protein)
chain: MQAAALPEEIRWLLEDAEEFLAEGLRNENLSAVARDHRDHILRGFQQIKARYYWDFQPQGGDIGQDSSDDNHSGTLGLSLTSDAPFLSDYQDEGMEDIVKGAQELDNVIKQGYLEKKSKKHSFFGSEWQKRWCVVSRGLFYYYANEKSKQPKGTFLIKGYGVRMAPHLRRDSKKESCFELTSQDRRSYEFTATSPAEARDWVDQISFLLKDLSSLTIPYEEDEEEEEKEETYDDIDGFDSPSCGSQCRPTILPGSVGIKEPTEEKEEEDIYEVLPDEEHDLEEDESGTRRKGVDYASYYQGLWDCHGDQPDELSFQRGDLIRILSKEYNMYGWWVGELNSLVGIVPKEYLTTAFEVEER
B2: SKAP1 W333K mutant, N2-fused (natural protein)
chain: B1 chain with K120D, W333K
B3: SKAP1 DomDIM mutant, N2-fused (domain or fragment)
chain: MQAAALPEEIRWLLEDAEEFLAEGLRNENLSAVARDHRDHILRGFQQIKARYYWDFQPQGGDIGQDSSDDNHSGTLGLSLTSDAPFLSDYQDEGMEDIV
B4: SKAP1 ΔLink1PH deletion mutant, N2-fused (natural protein)
chain: MQAAALPEEIRWLLEDAEEFLAEGLRNENLSAVARDHRDHILRGFQQIKARYYWDFQPQGGDIGQDDLSSLTIPYEEDEEEEEKEETYDDIDGFDSPSCGSQCRPTILPGSVGIKEPTEEKEEEDIYEVLPDEEHDLEEDESGTRRKGVDYASYYQGLWDCHGDQPDELSFQRGDLIRILSKEYNMYGWWVGELNSLVGIVPKEYLTTAFEVEER
B5: SKAP1 ΔPH deletion mutant, N2-fused (natural protein)
chain: MQAAALPEEIRWLLEDAEEFLAEGLRNENLSAVARDHRDHILRGFQQIKARYYWDFQPQGGDIGQDSSDDNHSGTLGLSLTSDAPFLSDYQDEGMEDIVKGAQELDDLSSLTIPYEEDEEEEEKEETYDDIDGFDSPSCGSQCRPTILPGSVGIKEPTEEKEEEDIYEVLPDEEHDLEEDESGTRRKGVDYASYYQGLWDCHGDQPDELSFQRGDLIRILSKEYNMYGWWVGELNSLVGIVPKEYLTTAFEVEER
B6: SKAP1 Link2SH3 mutant, N2-fused (domain or fragment)
chain: SSLTIPYEEDEEEEEKEETYDDIDGFDSPSCGSQCRPTILPGSVGIKEPTEEKEEEDIYEVLPDEEHDLEEDESGTRRKGVDYASYYQGLWDCHGDQPDELSFQRGDLIRILSKEYNMYGWWVGELNSLVGIVPKEYLTTAFEVEE
B7: SKAP1 ΔSH3 mutant, N2-fused (domain or fragment)
chain: MQAAALPEEIRWLLEDAEEFLAEGLRNENLSAVARDHRDHILRGFQQIKARYYWDFQPQGGDIGQDSSDDNHSGTLGLSLTSDAPFLSDYQDEGMEDIVKGAQELDNVIKQGYLEKKSKDHSFFGSEWQKRWCVVSRGLFYYYANEKSKQPKGTFLIKGYGVRMAPHLRRDSKKESCFELTSQDRRSYEFTATSPAEARDWVDQISFLLKDLSSLTIPYEEDEEEEEKEETYDDIDGFDSPSCGSQCRPTILPGSVGIKEPTEEKEEEDIYEVLPDEEHDLEEDESGTRRK

Target: C1-fused SRC kinases
Test: split reporter (BiFC, NanoBiT); Gaussia princeps luciferase complementation assay in human HEK293T cells; Gluc2 at the N terminus of SKAP1 or SKAP2 (N2), Gluc1 at the N terminus (N1) or C terminus (C1) of the SRC kinase; 100 ng plasmid pair, PEI; luminescence read in lysate one day later; normalized luminescence ratio (NLR), given relative to wild type or to SKAP2

Binder | wild-type normalized NLR, mean over SRC kinases
B1 | 1.49
B2 | 1.24
B3 | 0.32
B4 | 0.96
B5 | 0.87
B6 | 0.51
B7 | 2.53

Target: N1-fused SRC kinases
Test: as above

Binder | wild-type normalized NLR, mean over SRC kinases
B1 | 1.17
B2 | 1.16
B3 | 0.11
B4 | 1.57
B5 | 1.35
B6 | 0.29
B7 | 1.51
